Measurements published in the supplement of paper PMC12042874.
± gives the uncertainty stated by the source.

test: amyloid nucleation score (Sup35N fusion, yeast selection) (log enrichment); library NNK3; higher = more nucleation; inactive = no reads after selection
Method in brief: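 The nucleation score is the log enrichment of output over input reads, calculated with DiMSum and centred on the mode score of non-aggregating sequences. Sequences with under 100 input reads were excluded. Reads came from Illumina sequencing of plasmid inserts from psi-negative yeast expressing Sup35N fused to peptides of 20 random codons, induced 24 hours with 100 μM copper sulfate and grown 7 days at 30°C without adenine and uracil.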

Amyloid nucleation score, 2.23 ± 0.06:
YYWCFSF

Amyloid nucleation score, 2.38 ± 0.058:
CLNGSCAMLSGLVCLLCNRQ

Amyloid nucleation score, 2.45 ± 0.071:
MQICSCYRFSD

Amyloid nucleation score, 2.47 ± 0.076:
NVVIFML

Amyloid nucleation score, -0.187 ± 1:
LWVCNRGGTPTSVSSESRRE

Amyloid nucleation score, 1.4 ± 0.13:
LYFILLAHLFSCNNPVSKDP

Amyloid nucleation score, -0.554 ± 0.63:
IRYRRHVNVEFKMYNWSCWC

Amyloid nucleation score, 0.569 ± 0.22:
SEQVMRTRDSTRAKSGLNVI

Amyloid nucleation score, -0.436 ± 0.44:
EIMYVLTIFSNVFVMFFS

Amyloid nucleation score, 0.569 ± 0.3:
ALVAKVVIGSRW

Amyloid nucleation score, 2.3 ± 0.081:
SIEKAILCSCVVSMPIMRGG

Amyloid nucleation score, 2.06 ± 0.093:
FIWIIMVGNNVPNT

Amyloid nucleation score, 1.99 ± 0.07:
FLYMSMPSLSMVQICYSQRG

Amyloid nucleation score, -0.526 ± 0.45:
YRYYCWNCCELGIDGTMWVA

Amyloid nucleation score, 0.211 ± 0.24:
RQQRLRRKPLFWDNQAKANY

Amyloid nucleation score, 0.492 ± 0.18:
VYYVNS

Amyloid nucleation score, inactive:
GICHTFDAGTVFFLFGSWFI
IIFQTVR
GCSRHYKFS
CSYRRLIFILCD
GTCKS
YCYRYGWYHMNEDRIWDVRL
CPMVLSQEGSTAPEQCVGLG
RCICTRFLVPWDSIA
QFSMLMVVLCP
MNNCTDLYLLVNPRIRFGVM
TAVLH
VLPVHNKVNITLTVSAPWLW
IDSLSAIGKSWTQGESRSDR
DIYMMLICGWGLGKLIPGFM
SDGSCRVRAFYSYKGALVSF
AWWYGLSMYIKKCILGSRFE
YMSRKPV
LRAFMYLFTYKTWIRTSNGV
GVRVS
FNDSLSLTVTRVIF
LNKVIRCEAYRCKTMN
SSVMFVRIVLRIGGYHLAAR
NIGRNMLRCVNLTT
SGYLYFFLRSVDCRFLTSSL
NAQWLYCINSD
VKEPPTCVTCSAHSIRSGYS
PGDTQITYTGLSEFWCPGVA
LISAYVGWDICLASML
NASLI
YRRYWLSGRSFRADFIDNKT
YWLIRDLWRGRGS
IRNSVLWGHFIR
ELGIII
NRYLLRVVLYNSLTRLTVGF
TCVLLCDVFFHGLVLDLKLV
FMVLRYCVILWGFWEYMSSA
LSSHS
GTMYVGSGGYEKL
STWRASIVPSFMVRGCWSIK
NRILGGNLYVNVIDRIGGMV
PLFFMPGNKWTYFSKSSADT
DPFRLLGEY
NNSASNPILFGRYVTASREY
SVSHAE
PLTFRTMVFKALVEAWRKFN
FKNRYFHLPCSDLLYHSLGR
ARLFKGYSVVLCLCVSHR
DWRMAYVSVC
EVFGVIDDNYFCR
DAIIVSIAYILG
LKSSPFNYSVGIS
HPCFLW
CFRCS
DGRAWRALRGPK
LMVASISNVQRRIVRVKLCD
HQIFYVFEYEYSKRLLCMWW
YFSRMVKVRSNI
ALYTCMNLSYPLHSEFVTPR
YLGFFTAYA
ISMFDPLRCPWSNYGMCG
RNANSNWSRPVLNAWSLNEV
GEKCGRSRI
EVLSMYRCSNVFLWFTKFIA
VCNIAQ
QCKGCFSPVFKSCFICR
VNSGVGVSVRRASSLCLCVR
LFVYHCYIFSMRSRCMSHLY
YAAEYYVVQVIG
VGTPCSYSWLAAPV
LAVGRTWMLVANWDSMGQIV
ASTSD
TCLNGLVESRLAGFYHLRGP
LTSLLTARKNCTNFHN
SRLNFVLVSMQD
WTKSFSSNSTQVSQYYSFNL
VSETMWMSFLTVSFELRVDG
NPLFMQSLKLRCCRNLRFRS
KVIDGVDAMWCMKVFWV
WWADA
GLFMRFTRWCRGKHVTMVP
CYGNSMIGVFRICFHSLVYV
WVHFYDTMGDM
LGRCRWMDPHILLVLHVPCE
APPGFFIIVMSCWCYITRAL
ESSMFARDTLWMSFVRTMHS
VWNVQSFQ
VGTGICKRPGYRAGSV
ESETWSTYSALQHGQVAIGC
MSILMMSL
ATCRRFTLVQPSYLVPCEPY
LVRRHSFSGYRRDT
RLTTLPIRSPFTLGYTFARK
LLRTL
SVLLHLNRNVMWTMPSRGAF

Amyloid nucleation score, 2.31 ± 0.06:
AQKFSIWLCTTICINTDFDF

Amyloid nucleation score, 0.84 ± 0.2:
NMVISYGVWYCDRKD

Amyloid nucleation score, 0.247 ± 0.34:
LLHHFFAVFDSARETKWDWD

Amyloid nucleation score, -0.458 ± 1.4:
FSTWEELLTSHLKCFTAGWG

Amyloid nucleation score, 1.35 ± 0.12:
SLIFFL

Amyloid nucleation score, 0.223 ± 0.31:
FHRTEGCECVASLKVARGVV

Amyloid nucleation score, 0.498 ± 0.34:
SMACCGLSIAATNAPKVPKV

Amyloid nucleation score, 1.62 ± 0.11:
VRRTLYISMRLRLIPYLSNV

Amyloid nucleation score, -0.136 ± 0.53:
HYSLNASIYSTCTRTSMNPV

Amyloid nucleation score, 0.486 ± 0.33:
VFCPTWFTMGGVCIAVAHLV

Amyloid nucleation score, 0.033 ± 0.9:
KWNRLLVMRLAVIECRARVA
